Laboratory results published in PMC3618588.

biological target: His6-JAK2 JH1 (836-1132), phosphorylated (JAK2^pY1007/pY1008) (mouse) (UniProt Q62120)
Sequence of UniProt Q62120 (Q62120 836-1132): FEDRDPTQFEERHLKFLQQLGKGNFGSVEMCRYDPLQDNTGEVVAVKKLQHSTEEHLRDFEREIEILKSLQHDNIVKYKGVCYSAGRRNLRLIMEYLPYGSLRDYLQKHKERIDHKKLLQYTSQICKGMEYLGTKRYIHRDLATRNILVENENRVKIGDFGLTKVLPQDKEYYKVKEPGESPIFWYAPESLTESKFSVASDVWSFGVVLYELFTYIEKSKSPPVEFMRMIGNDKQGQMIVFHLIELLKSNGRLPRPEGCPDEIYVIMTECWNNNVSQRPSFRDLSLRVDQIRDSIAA

| Substance | IC50 of inhibition of JAK2 kinase activity by the isolated peptide |
| --- | --- |
| isolated KIR peptide from SOCS1 | 0.1 mM |

biological target: His6-JAK2 JH1 (836-1132), phosphorylated (JAK2^pY1007/pY1008) (mouse) (UniProt Q62120); remark: another data set of the same source

| Substance | IC50^mutant/IC50^WT, inhibition of JAK2 JH1 kinase activity |
| --- | --- |
| SOCS3 A50E / elonginBC complex (from UniProt O35718 22-225; Q15370 1-118; Q15369 1-112) | 1.1 ratio to WT |
| SOCS3 T52A / elonginBC complex (from UniProt O35718 22-225; Q15370 1-118; Q15369 1-112) | 10 ratio to WT |
| SOCS3 S26A / elonginBC complex (from UniProt O35718 22-225; Q15370 1-118; Q15369 1-112) | 1 ratio to WT |
| SOCS3 Y47F / elonginBC complex (from UniProt O35718 22-225; Q15370 1-118; Q15369 1-112) | 80 ratio to WT |
| SOCS3 A50K / elonginBC complex (from UniProt O35718 22-225; Q15370 1-118; Q15369 1-112) | 6 ratio to WT |
| SOCS3 Y31A / elonginBC complex (from UniProt O35718 22-225; Q15370 1-118; Q15369 1-112) | 6 ratio to WT |
| SOCS3 E30A / elonginBC complex (from UniProt O35718 22-225; Q15370 1-118; Q15369 1-112) | 23 ratio to WT |
| SOCS3 S27A / elonginBC complex (from UniProt O35718 22-225; Q15370 1-118; Q15369 1-112) | 2.5 ratio to WT |
| SOCS3 K23A / elonginBC complex (from UniProt O35718 22-225; Q15370 1-118; Q15369 1-112) | 1.4 ratio to WT |
| SOCS3 L22A / elonginBC complex (from UniProt O35718 22-225; Q15370 1-118; Q15369 1-112) | 1.2 ratio to WT |
| SOCS3^22-225 / elonginBC complex (wild type) (from UniProt O35718;Q15370;Q15369) | 1 ratio to WT |
| SOCS3 T24A / elonginBC complex (from UniProt O35718 22-225; Q15370 1-118; Q15369 1-112) | 3.3 ratio to WT |
| SOCS3 S29A / elonginBC complex (from UniProt O35718 22-225; Q15370 1-118; Q15369 1-112) | 2 ratio to WT |
| SOCS3 L22F / elonginBC complex (from UniProt O35718 22-225; Q15370 1-118; Q15369 1-112) | 0.1 ratio to WT |
| SOCS3 R77A / elonginBC complex (from UniProt O35718 22-225; Q15370 1-118; Q15369 1-112) | 1.4 ratio to WT |
| SOCS3 K28A / elonginBC complex (from UniProt O35718 22-225; Q15370 1-118; Q15369 1-112) | 2.8 ratio to WT |
